Measurements as given in the supplement of paper PMC7877785.
± gives the uncertainty stated by the source.

Experiment: self-splicing fitness, log relative to wild type (ln ratio); higher = more splicing; Tetrahymena group I intron in knt gene, E. coli kanamycin selection, DiMSum; sequences stand for … in CUCUCU…GGAGGGAAAAGUUAUCAGGCAUGCACCUGGUAGCUAGUCUUUAAACCAAUAGAUUGCAUCGGUUUAAAAGGCAAGACCGUCAAAUUGCGGGAAAGGGGUCAACAGCCGUUCAGUACCAAGUCUCAGGGGAAACUUUGAGAUGGCCUUGCAAAGGGUAUGGUAAUAAGCUGACGGACAUGGUCCUAACCACGCAGCCAAGUCCUAAGUCAACAGAUCUUCUGUUGAUAUGGAUGCAGUUCACAGACUAAAUGUCGGUCGGGGAAGAUGUAUUCUUCUCAUAAGAUAUAGUCGGACCUCUCCUUAAUGGGAGCUAGCGGAUGAAGUGAUGCAACACUGGAGCCGCUGGGAACUAAUUUGUAUGCGAAAGUAUAUUGAUUAGUUUUGGAGUACUCGUGGUCG
How it was run: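 Fitness was computed with DiMSum as the error-weighted combination of replicate fold changes, kanamycin versus none, each normalised to wild type. The library randomised all eight intron nucleotides of the P1ex region, with the intron placed in the knt kanamycin-resistance gene on pET-22b(+) in E. coli BL21(DE3). Six replicate transformations were grown overnight at 37°C or 30°C on LB agar with or without 25 μg/mL kanamycin, plus 100 μg/mL carbenicillin, 50 μM IPTG and 0.2% rhamnose. Pooled colonies were amplicon-sequenced on an Illumina HiSeq 2500.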

Row | Sequence | self-splicing fitness (ln) (30 °C) | self-splicing fitness (ln) (37 °C)
1 | GGUCAGCAAUAUUACGCUUG | -0.955 ± 0.07 | -0.556 ± 0.096
2 | GGUCAGCAAUAUUACGGAUC | -2.95 ± 0.22 | -0.0513 ± 0.21
3 | GGUCAGCAAUAUUACGGCAC | -0.775 ± 0.13 | 0.566 ± 0.16
4 | GGUCAGCAAUAUUACGGCCU | -2.84 ± 0.29 | -2.34 ± 0.45
5 | GGUCAGCAAUAUUACGGGAC | -1.72 ± 0.15 | -2.96 ± 0.4
6 | GGUCAGCAAUAUUACGGGUA | -1.57 ± 0.12 | -0.686 ± 0.1
7 | GGUCAGCAAUAUUACGGUAC | 0.214 ± 0.15 | 0.298 ± 0.17
8 | GGUCAGCAAUAUUACGGUCC | -3.1 ± 0.39 | -1.81 ± 0.37
9 | GGUCAGCAAUAUUACGUCGG | -3.9 ± 0.36 | -0.891 ± 0.19
10 | GGUCAGCAAUAUUACGUUUA | -1.23 ± 0.1 | -0.167 ± 0.1
11 | GGUGAGCAAUAUUACGAACA | -0.64 ± 0.34 | 0.394 ± 0.47
12 | GGUGAGCAAUAUUACGAAGU | -2.25 ± 0.23 | -1.67 ± 0.35
13 | GGUGAGCAAUAUUACGACAU | -1.27 ± 0.016 | -0.567 ± 0.035
14 | GGUGAGCAAUAUUACGACGA | -1.32 ± 0.22 | -0.954 ± 0.34
15 | GGUGAGCAAUAUUACGACUA | -0.202 ± 0.17 | -0.327 ± 0.17
16 | GGUGAGCAAUAUUACGAGCA | -0.652 ± 0.23 | -1.1 ± 0.29
17 | GGUGAGCAAUAUUACGAUAA | -1.22 ± 0.47 | –
18 | GGUGAGCAAUAUUACGAUUC | -0.904 ± 0.089 | 0.137 ± 0.11
19 | GGUGAGCAAUAUUACGCACU | -3.35 ± 0.44 | -2.9 ± 0.43
20 | GGUGAGCAAUAUUACGGCGC | -0.434 ± 0.13 | -0.198 ± 0.19
21 | GGUGAGCAAUAUUACGGGUA | -2.58 ± 0.31 | -1.64 ± 0.38
22 | GGUGAGCAAUAUUACGGUAC | -1.95 ± 0.13 | -1.4 ± 0.18
23 | GGUGAGCAAUAUUACGGUCA | -1.77 ± 0.32 | -1.79 ± 0.38
24 | GGUGAGCAAUAUUACGUCAU | -3.97 ± 0.19 | -2.76 ± 0.31

Row | Sequence | self-splicing fitness (ln) (30 °C) | self-splicing fitness (ln) (37 °C)
25 | GGUGAGCAAUAUUACGUCUA | -1.91 ± 0.16 | -1.42 ± 0.15
26 | GGUGAGCAAUAUUACGUGGC | – | -2.59 ± 0.33
27 | GGUGAGCAAUAUUACGUGUA | -2.8 ± 0.25 | -3.22 ± 0.3
28 | GGUUAGCAAUAUUACGAAGC | -0.991 ± 0.17 | -1.24 ± 0.18
29 | GGUUAGCAAUAUUACGAAUU | 0.0573 ± 0.13 | -0.482 ± 0.16
30 | GGUUAGCAAUAUUACGACAU | 0.0748 ± 0.014 | 0.332 ± 0.034
31 | GGUUAGCAAUAUUACGACCU | -1.72 ± 0.35 | -0.0941 ± 0.33
32 | GGUUAGCAAUAUUACGAGGG | -3.05 ± 0.21 | -2.28 ± 0.34
33 | GGUUAGCAAUAUUACGAGUG | -2.59 ± 0.35 | -1.39 ± 0.19
34 | GGUUAGCAAUAUUACGCAAA | -1.62 ± 0.39 | -2.21 ± 0.31
35 | GGUUAGCAAUAUUACGCCUG | -2.89 ± 0.38 | -2.7 ± 0.48
36 | GGUUAGCAAUAUUACGCGCA | 1.25 ± 0.28 | 0.766 ± 0.34
37 | GGUUAGCAAUAUUACGGCUU | -0.26 ± 0.082 | 1.05 ± 0.096
38 | GGUUAGCAAUAUUACGGUAC | -1.21 ± 0.11 | -0.6 ± 0.15
39 | GGUUAGCAAUAUUACGUCAA | -0.285 ± 0.11 | -0.43 ± 0.13
40 | GGUUAGCAAUAUUACGUCGA | -1.43 ± 0.14 | -0.492 ± 0.14
41 | GGUUAGCAAUAUUACGUGGC | -3.21 ± 0.34 | -1.64 ± 0.19
42 | GGUUAGCAAUAUUACGUGUG | -2.43 ± 0.12 | -1.56 ± 0.11
43 | GGUUAGCAAUAUUACGUUGA | -2 ± 0.2 | -1.54 ± 0.17
44 | GUAAAGCAAUAUUACGAAAA | -1.52 ± 0.15 | 0.0796 ± 0.28
45 | GUAAAGCAAUAUUACGAAAG | -2.91 ± 0.19 | -1.33 ± 0.19
46 | GUAAAGCAAUAUUACGAAGG | -3.13 ± 0.13 | -1.92 ± 0.17
47 | GUAAAGCAAUAUUACGAAUA | -1.68 ± 0.093 | -0.495 ± 0.15
48 | GUAAAGCAAUAUUACGAGAG | -3.16 ± 0.16 | -3.37 ± 0.23
